The source of these data is a protein production outcome set (Wang et al. 2014).

This series is described as follows: label from the status in PepcDB records.
For the sequence “MNWRRYNGRKKLAIIVPIYNVADYLKDCLNSLLKQGVPEKELQIILVDEGSTDNSAQIAQKFVEKYPNFFELHQFENAGLGAARNRGTRLARARFITYVDSDDIVAPNSYEYMLGILERTGSQIITGNVHRFNSKKEWLNNIHARSHLGDFENTSLKEHPELIWDSTSWNKIFCLDFLKENNLYFPEGVLYEDIPMINPAFAAAKSIDIVKRMVYLWRAREGSITESSTDAKAVLDRITITEIALAGLKKYNAPNEILDILYLKSLNLGIISMLRKEKYEYISLERKQELFNSLKEYLEKFPSDTLYQAKFDKLIYFDKVLKAKTQEEFDEITSKYLKNEIGFSGYWNDAGQYVLKSDYSDLEKIVTSDDLEIHPKIEEVVFEDDSLKIQGYFYAKYSDMSAPENVKILGISALSDDGNTINEIVGEKRNFENQRITAKFGYNLNHFVKDGADFNYDYSGYELKIPLNHLEFETTNSLAFVLEVEIDGLKFEVPIKNPISGDKPRPKVGLSNAQVFSVSYKTDWSLVLSLKERSVEELYFSEDGKELRIKGNATKIALKSGKTKLPLKLVGGRVMISQAVQEKIKSFDKSVFHWWQFITYVNGKEKSIYYSGFPKNFQNDSNLEILFSNNGVATLGISYLYPLVEKLQVEENVLKLAFSLKGWMTEATKVQIVADPTLSMIWETEKMNENLYQLSLPLTLDGFSDKEWLNFHVRLTFNDGYQTNELLRWGKKEFALKNEWVSANGIGWFFRSVEQKEHGAFAIKRTADRVFQEKVGNLEYVLQEKYQNWLKEPVLNDYIMMSSFWGRNNHFNDNPEALYRYIEKNYPNMTTIIVLKDAIRSYPEYPNAKIVSYGTADYWYYLARSKYFVNNVNFTEPPRIKREEQIEIQTMHGTPLKTLGFDVLGDWKDSTYNEVLRKNGNWDYLTVPSDWVANYALKAFRVSPQIIKSGYPRNDKLFIDYKM”, the protein production entry was “failed”.
“MTESESASGMDGVVLGGTASGVGKTVATLAVARALADAGHDVQPAKAGPDFIDPSHHEPVVGTPSRSLDPWLSGTDGMRRTYHQGDGDVCVVEGMMGLYDGSVASTARVASELDLPVVLVVDASAGMQSVAATALGFQAYAAEASVDVDVAGVLAQRAHGGRHADGIRDALPDSLTYFGRVPPRDDLDVPDRHLGLHMGSEAAIDDDAVDAAAAHVAAKRIADVARTPPRPPAHDPAPDTGQTVAVADDAAFCFAYPATRERLRERADVVTFSPVAGDDLPACDGVYLPGGYPELHTDALADAPALDTLGARAADGLPVLGECGGLMALAESLTTTDGDTAEMAGVLPADVRMQDRYQALDHVELRATGDTLTAGSGATLRGHEFHYSAATVASDARFAFAVERGDGIDGDHDGLTEYRTLGTYAHVHPESTAFDAFLDAL”: the protein production entry is “failed”.
Take “MEDFNMESDSFEDFWKGEDLSNYSYSSTLPPFLLDAAPCEPESLEINKYFVVIIYALVFLLSLLGNSLVMLVILYSRVGRSVTDVYLLNLALADLLFALTLPIWAASKVNGWIFGTFLCKVVSLLKEVNFYSGILLLACISVDRYLAIVHATRTLTQKRYLVKFICLSIWGLSLLLALPVLLFRRTVYSSNVSPACYEDMGNNTANWRMLLRILPQSFGFIVPLLIMLFCYGFTLRTLFKAHMGQKHRAMRVIFAVVLIFLLCWLPYNLVLLADTLMRTQVIQETCERRNHIDRALDATEILGILHSCLNPLIYAFIGQKFRHGLLKILAIHGLISKDSLPKDSRPSFVGSSSGHTSTTL”: the protein production entry is given as “not failed”.
As for “MSLTASYETIKARLDGTVLSATFNAPPMNLIGPEVVRDLVALLEELAHPTAPRVVIFDSADADFFFPHVDMTKVPEYTAEAAKAGGPGDASLGMLFRKLSQLPAVTIAKLRGRARGAGSEFLLACDMRFASRENAILGQPEVGIGAPPGAGAIQHLTRLLGRGRALEAVLTSSDFDADLAERYGWVNRAVPDAELDEFVAGIAARMSGFPRDALIAAKSAINAISLPAPAEVRADAALFQQLVRGEKVQQRTAELFKQGFQTRGATELDLGDALGHLKAVDEGHHHHHH”, the protein production entry is “not failed”.
For “MLSVIIITKNEEANIRRCLESVHFADEIIVLDSGSTDNTLAIAREYTDKVFSTDWQGYGIQKDRALQKAQGDWVLNLDADESVSSELRQEILQAISSDTADAFRIPIQMIFYNQVLKYSGSPKRHIRLFKRENASYSKDIVHEKVLIPVNARVGKLKKPIWHHSFSDVHHVLYKLNKYSSYSAKIRIESNEKVGLVKTFFSALWMFVRCLFLQKGFLDGRAGFLFAVFGAQGAFYRGVKQIYKDRDINKLPSVNHIKEELEHHHHHH”, the protein production entry is reported as “not failed”.
As to “MGAIEDIYEDLETDVPEEEFREAVEEKVEQMGGLADEETAAMLLAHELNENEVNAIADIEPGMDEVKFLAKVMAIGDLKTFERDDEDEDGRVINVEAADESGSLRLAFWDGQAVDIDEGKLEVGDVLRVKGRPKDGYNGLEVSVDKAEPDEDATIDVEPGAGSSIDALTMGQSDVTLRGLVLDTDSIRTFDRDDGSEGRVSNLTLGDETGRIRVTLWDDRADRADELDAGAAVEIIDGYVRERDGSLELHVGDQGAVDEVEDDVAFEPDADPIAEVELEETADIAGVVRSADPKRTFDRDDGSEGQVRNVRIQDATGDIRVALWGDKADKDIAPGDEVLAADVEIQDGWQDDKEASASWNSTIVVLDDGADLATGGAGGGASAETTDAEHAGLSSFGDEGDDTDADSSGNEAAAVSAGTGDTSPDGGAQSAGQQVEFTGTVVQTGDPVVLDDGEQTMSVETGERVQLGQEITVRGELRDDRLHAEDVFLEHHHHHH”, the protein production entry is “failed”.
To “MFNFAVSRESLLSGFQWFFFIFCNTVVVPPTLLSAFQLPQSSLLTLTQYAFLATALACFAQAFCGHRRAIMEGPGGLWWGTILTITLGEASRGTPINDIATSLAVGIALSGVLTMLIGFSGLGHRLARLFTPSVMVLFMLMLGAQLTTIFFKGMLGLPFGIADPNFKIQLPPFALSVAVMCLVLAMIIFLPQRFARYGLLVGTITGWLLWYFCFPSSHSLSGELHWQWFPLGSGGALSPGIILTAVITGLVNISNTYGAIRGTDVFYPQQGAGNTRYRRSFVATGFMTLITVPLAVIPFSPFVSSIGLLTQTGDYTRRSFIYGSVICLLVALVPALTRLFCSIPLPVSSAVMLVSYLPLLFSALVFSQQITFTARNIYRLALPLFVGIFLMALPPVYLQDLPLTLRPLLSNGLLVGILLAVLMDNLIPWERIE” belongs “failed”; to “MLQYGQKSFLIVDDFTDFRTSTRSMLRELGVRDVDTADSGEQALRMCAQKRYDFILQDFHLGDGKKNGQQVLEDLIIDKHISHECVFIMVTAESSQAIVLSAIEHEPDAYLTKPFNRVGLAQRVEKLFQRKTLLKPILQALDRNRPAEVLAACAELCKKDPRLAPLCLRYRADALRNLNRFEELEKFLKAILASRPQPWVYAALGALMHKRGQNAQAQGVYEQALKAFPIMPGLYDGMAEVLVAQGDTRRAQNLLEEAVRLSPLSVRRQSTLGKLALENEDFESASKAFRHAVNQGQSSRYKDAENNLGLVQALMSKNAGFGLDARTRVEINTTLSEVAKENPEDQGLQVRARMMKAASLQQAGDPETAGKLTEQAIQRLDKMNQFFSVDSALTVAAQLQAMGQEAAAIGVLKNCVESYGDDPKVMEKVGKLTDDPSVLNAITEAVTLNRQGVRSYQGGQLGEALQLFRKALGLQPKNISIALNTAQALLRIGGDNPQPAIMQECRDALTSVAGIPASDNRYDRYRKLHIRVFGA”, “failed”.
To “MSIPLLEYAPSSQNQRVEGYEVPNEDTPTIYRLAAAIDDADVDAIIWAGYRQIFSEHLIIKSNRQSFLESQLRNRAINVRDFIRGLGKSEVYRTQVADLNSNYRLVDITLKRFLGRAAYNQDEEIAWSIVIGSQGLHGFIDALLDSDEYRENFGDDIVPYQRRRYKDRPFNLVNPRYNAYWRDRQTLNALGGRSFYSARTSGTLTKDDIRRAIPANFMALAGKILTPERNYQRTIASVTSQIKDIKIPDTSREVTTPEVTVKPVAVALPYRYIPGNKTT” belongs “failed”; to “MKIGIVIPAHNEEQHLSACLQSIQQAIQHTGHEQVEILVVLDSCTDQSRSVVESHQVNWIECNFACVGKARDLGIRQLIDQGVIWVACTDADTIVDSDWILCQMLHQPTDAICGVVTLDDLSHLSVQQQQKYLAHYQDSMDHQHIHGANLSFSAEAYIQAGGFEPIPCHEDVSLIEKFIKQCCKVTRSNLVRVTTSSRLNGRAPEGLSYFLKHL”, “failed”; to “MVFFSVVVPTYNRRPILEKCLRALEQQQISAETAIAGYEVVVVDDGSTDGTVDWLKAQASEFPHVRLFEQDHQGPARARNLGVQQAQGDTIIFIDSDLVVTPPFLQAHATGLEKGRQRLGSDRCFTYGAVINTCNFDNPTAEPFKVTDFSNAYFATGNVAIARHWLETAGLFDTAFQLYGWEDLELGVRLKNLGLKLIRCPEAVGYHWHPPFSLEQIPKLIDQESQRGRMGVLFYQKHPTWEVRLMIQMTWLHRLLWGTLSLGGFLNERTLRPLLAWLLKRDRPQLALEIARIFLNWNNVRSVYAAYRESQGLASSLEHHHHHH”, “not failed”.
Turning to “MQYGAIVVTFNRKQLLIESITALLNQTVPPAKIIIIDNHSTDGTKAELQTADILANPSVDYRYLTKNIGGAGGFARGMQIAAADPNLDWASMSDDDAIFEPDYFEKLIAYQQDHPNRQILTGSVYIEDGRLQADQRNRFTNWSTFQAQAVPEREYRGNFEFDQYTFCGVFMSVAVIKQVGVADAGYFIWWDDCEYAVRTAKLSRPVNVSAAKLIHKTALPSLDFKSKFVPDWRLYYGQRNRLITIKRWRANSLVSLGWLLGFYARLAIQLCGPFYRGYRKMVIRVYLEALRDASREREGLNPNFMPGQKFLEHHHHHH”, the protein production result is reported as “not failed”.
To “MSEKDFVQVAKLGKTVGLKGYVKLHNLSDFSSQFKKDATFFIKNTKEMLKIKHYNANNSTVLFENYEDIEKAKELTNLILFQSIEKSRQTCKLKKDEFFYFDILECEVFEEDKRLGKVVDILETGASYLFEIQSDEKWVEKKYPKIFFIPYLDKFVKNIDIEKRQIFCTQDAFLILENSLEHHHHHH” belongs “not failed”; to “MTKKQKEILFCDYFEEWVEVYKVGAIAKITLAKYYNAAKQLRDLCPKLFISDFDRREYQRIINVYAETHEKQTVKDFHHHVKACIKDLFHDGLIDKDPTYRVVIKGAEPTRAKLEHHHHHH”, “failed”; to “MYKILIVEDDPNISSLLQSHIQKYGYEAVVAENFDDIMESFNAVKPHLVLLDVNLPKFDGFYWCRQIRHESTCPIIFISARAGEMEQIMAIESGADDYITKPFHYDVVMAKIKGQLRRIYGDYAPNISERIVEVEGLKLFPERPEIHFGSEQVLLTKKEAILAEMLLSKFPRTASREDLLAALWDDESFVEENTLNVNITRLRKKFNELGIENAIETVRGLGYRFNATWSE”, “failed”.
To “MWMKDPVARPLSPTRLQPALPPEAQSVPELEEVARVLAEIPRPLKRRGSMEQAPAVALPPTHKKQYQQIISRLFHRHGGPGPGGRSQSCPPSLRDLRPGQGPLLLPHQLPFHRPAPSQSSPPEQPQSMEMRSVLRKAGSPRKARRARLNPLVLLLDAALTGELEVVQQAVKEMNDPSQPNEEGITALHNAICGANYSIVDFLITAGANVNSPDSHGWTPLHCAASCNDTVICMALVQHGAAIFATTLSDGATAFEKCDPYREGYADCATYLADVEQSMGLMNSGAVYALWDYSAEFGDELSFREGESVTVLRRDGPEETDWWWAALHGQEGYVPRNYFGLFPRVKPQRSKV” belongs “not failed”; to “MEFGYIGLMVSVVLIGISVYGFLNSKNIVRIFLSSEILVNASILIVFSVSSLTNQVYLPIYFSLFAIGMALVEIVVAFAAIFLYYKNKGSLEVE”, “failed”.
To “ENDVRVETTLHQNTRIYDVRGQLFFSSSERFAKAFDFQENVAHVIIDLTHSHIWDVTTVASLDHIVDKFQKNGIQVTVKGLNEASSIMIEQYGTHSKI” belongs “failed”.
